# Laboratory results from the nanobody polyreactivity screen of Harvey et al. (2022).
# Assay: yeast display, Sf9 membrane polyspecificity reagent, FACS + sequencing; frameworks hold sequencing errors
# Method in brief: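 After 36–48 hours of galactose induction, yeast (Saccharomyces cerevisiae BJ5465) displaying a synthetic nanobody library were stained at 4 °C for 1 hour with 10% biotinylated, detergent-solubilized Sf9 membrane reagent. Streptavidin microbeads enriched the stained cells before FACS sorting into low and high (top ~1%) gates on anti-HA and streptavidin fluorescence. Each clone's polyreactivity label reflects its gate of origin.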
row,Sequence,polyreactivity (PSR sort gate)
1,QVQLVESGGGLVQAGGSLRLSCAASGRILPYYAMGWYRQAPGKERELVAAISYSGGSTYYADSVKGRFTLSRDNGKNTFYLQMNSLKPEDTAVYYCNARPVKASYVGYNYWGQGTQVTVSS,high polyreactivity
2,QVQLVESGGGLVQAGGSLRLSCAASGRILQWYTMGWYRQAPGKERELVAAISGGGGRTYYADSVKGRFTNSRDIAKNTVYLQMNSLKPEDTAVYYCAKRGTGVYRVDYGYWGQGTQVTVSS,high polyreactivity
3,QVQLVESGGGLVQAGGSLRLSCAASGRILRFYAMGWYRQAPGKERELVATISRSGGSTYYAESVKGRVTISRDNAKNTVDLQMNSLKPEDTAVDYCNAKFKGVSYKMDYWGQGTQVTVSS,high polyreactivity
4,QVQLVESGGGLVQAGGSLRLSCAASGRILRGNAMGWYRQAPGKEREFFAAIRRSGGTSYYADSVKGRFTISRDNAKNTVYLQMNSLKPEDTAVYYCAATKYQTSGDRGYEHWGQGTQVTVSS,low polyreactivity
5,QVQLVESGGGLVQAGGSLRLSCAASGRILRQYAMGWYRQAPGKESELVAAISRSGASTFYADSVKGRFTISRDNAKNTVYLQMNSLKPEDTAVYYCAAEHHAFTWAAINYGSWGQGTQVTVSS,high polyreactivity
6,QVQLVESGGGLVQAGGSLRLSCAASGRILRSYAMGWYRPAPGKERELVAAISWRGGSTYYADSVKGRFTISRDNAKNTVYLQMNSLKPEDTAVYYCAKRSYYPARYDYWGQGTQVTVSS,high polyreactivity
7,QVQLVESGGGLVQAGGSLRLSCAASGRILRYNAMGWYRQAPGKERELVASISGNGGSTYYADSVKGRFTISRDNAKYTVYLQMNSLKPEDTAVYYWGQGTQVTVSS,low polyreactivity
8,QVQLVESGGGLVQAGGSLRLSCAASGRILSRYAMGWYRQAPGKERELVAAINKSGGSTYYADSVKGRFTISRDNAKNTVYLQMNSLKPEDTAVFYCNAVYYWYKGDYWGQGTQVTVSS,high polyreactivity
9,QVQLVESGGGLVQAGGSLRLSCAASGRILSRYVMGWYRQAPGKERELVAAISGRATSTYYADSVKGRFTISRDNAKNTVYLQMNSLKPEDTAVYYCATGYKTYAVTLYDYWGQGTQVTVSS,high polyreactivity
10,QVQLVESGGGLVQAGGSLRLSCAASGRILSYYAMGWYRQAPGKERELVAVIRRGASTYADSVKGRFTISRDNAKNTVYLQMNSLKPEDTAVYYCNAERVVGLSATKYGYWGQGTQVTVSS,low polyreactivity
11,QVQLVESGGGLVQAGGSLRLSCAASGRILTFYGMGWYRQAPGKERELVAAISNGGSTYYADSVKGRFTSSRDNAKNTVYLQMNSLKPEDTAVYYCAKRILTAPRRNSGYDYWGPGTQVTVSS,low polyreactivity
12,QVQLVESGGGLVQAGGSLRLSCAASGRILTGYAMGLYRQAPGKEREFVASITGSGAITNYADSVKGRFTITRDNAKNTVYLQMNSLKPEDTAVYYCARGYGWWLGYSSRYDYWGQGTQVTVSS,high polyreactivity
13,QVQLVESGGGLVQAGGSLRLSCAASGRILTKYAMGWYRQAPGKERELVAAISDSGTGTYYADSVKGRFTISRDNAKNTVYLQMNSLKPEDTAVYYCHAQTRRTRTYHGHKYGYWGQGTQVTVSW,high polyreactivity
14,QVQLVESGGGLVQAGGSLRLSCAASGRILTSNAMGWYRQAPGKERELVAAISWSGGSTYYADSVKGRFTISRDNAKNTVYLQMNSLKPEDTAVYYCNADDTPVPSIRFDYWGQGTQVTVSS,low polyreactivity
15,QVQLVESGGGLVQAGGSLRLSCAASGRILTSYARGWYRQAPGKVRELVAAISYVCGSTDYADSVKGRFTISRDNAKNTVYLQMNSLKPEDTAVYYCAAKVRYYLSLRGSTTRRDDYYWGQGTQVTVSS,low polyreactivity
16,QVQLVESGGGLVQAGGSLRLSCAASGRILTYNAMGWYRQAPGKERELVATISARGSRTYYADSVKGRFTISRDNAKNTVYLQMNSLKPEDTAVYYCNAAVGYYSYSYYTKVGVDYWGQGTQVTVSS,high polyreactivity
17,QVQLVESGGGLVQAGGSLRLSCAASGRILVFYAMGGYRQAPGIERELVAAISKSVRPTYYADSVKGRFTISRDNAQNTVYLQMNSLKPEDTAVYYCNTRSASDLWPQYGYWGQGTQVTVSS,low polyreactivity
18,QVQLVESGGGLVQAGGSLRLSCAASGRILWSYPMGWYRQAPGKEREFVATINRSGGNTHYADSVKGRFTISRDNAKNTVYLQMYSLKPEDTAVYYCAALNLVPYGYQGLRYYYWGQGTQVTVSS,high polyreactivity
19,QVQLVESGGGLVQAGGSLRLSCAASGRILYAYTMGWYRQAPGKERELVATISRSGGNTYYADSVKGRFTISRDNAKNTVYLQMNSLKPEDTAVYYCAVGKYGTQRVKLYQYRYNYWGQGTQVTVSS,high polyreactivity
20,QVQLVESGGGLVQAGGSLRLSCAASGRILYGNAMGWYRQAPGKERELVAAIDTSGGSTYYADSVKGRFTISRDNAKNTVYLQMNSLKPEDTAVYYCAVRAYREFLPIVYKWWWERDHWGQGTQVTVSS,low polyreactivity
21,QVQLVESGGGLVQAGGSLRLSCAASGRILYGYAMGWYRQAPGKERELVASITWSGGSTYADSVKGRFTISRDNAKNTVYLQMNSLKPEDTAVYYCATRRGPKWQWLTYGYWGQGTQVTVSS,low polyreactivity
22,QVQLVESGGGLVQAGGSLRLSCAASGRILYHYAMGWYRQAPGKERELVAAITFSGDTTYYADSVKGRFTISRDNAKNTVYLQMNSLKPEDTAVYYCAADDYYLGYEYWGQGTQVTVSS,high polyreactivity

row,Sequence,polyreactivity (PSR sort gate)
1,QVQLVESGGGLVQAGGSLRLSCAASGRILYRNAMGWYRQATGKERELVAAITTRGTSTYYADSVKGRFTISRDNAKNTVYLQMNSLKPEDTSVYYCAADSWFSYRGPLYYWGQGTKVTVSS,high polyreactivity
2,QVQLVESGGGLVQAGGSLRLSCAASGRILYRYAMGWYRQAPGKERELVAAITWRGGTTYYADSVKGRFTISRDNAKNTVYLQMNSLKPEYTAVYYCNADWWRTLESDFWGQGTQVTVSS,low polyreactivity
3,QVQLVESGGGLVQAGGSLRLSCAASGRILYSYAMGWYRQAPGKEREFVAAISRSGARTYYADYVKGRFTISRDNAKNTVYLQMNSLKPEDTAVYYCAADDFSTVEYDYWGQGTQVTVSS,low polyreactivity
4,QVQLVESGGGLVQAGGSLRLSCAASGRILYTYAMGWYRQAPGKERELVATISSGGGTNYADSVKGRFTISRDNAKNTVYLQMNSLKPEDSAVYYCAARYGYSRGPYYRSDYWGQGTQVTVSS,high polyreactivity
5,QVQLVESGGGLVQAGGSLRLSCAASGRILYYNVMVWYRQAPGKERELVASNTSVVSTNYADSVKGRFTISRDNAKNTVYLHMNSLKPEDTAVYYCAARYFSGSFSDEIWGMDYWGQGTQVTVSS,high polyreactivity
6,QVQLVESGGGLVQAGGSLRLSCAASGRIRFYARGWYRQAPGKEREFVASITRSGGSTYYADSVKGRFTISRDNAKYTVYLQMNSLKPEDTAVYYCAADDYFHDDYWGQGTQVTVSS,high polyreactivity
7,QVQLVESGGGLVQAGGSLRLSCAASGRIRNAMGWYRQAPGKERELVAGITWSGGRTYYADSVKGRFTISRDNAKYTVYLQMNSLKPEDTAVYYCAAATPYRYNYWGQGTQVTVSS,high polyreactivity
8,QVQLVESGGGLVQAGGSLRLSCAASGRIRVQNDMGWYRQAPGKERELVAAIRSDGSPSYSDSVKGRFTISRDNAKNTVYLQMNSLKPEDTAVYYCAARIDWTGGEYDYWGQGTQVTVSS,low polyreactivity
9,QVQLVESGGGLVQAGGSLRLSCAASGRISAYNAMGWYRQAPGKERELVAGISTRTGSTYYADSVKGRFTISRDNAKNTVYLQMNSLKPEDTAVYYGAAYFWGVYFFGMDYWGQGTQVTVSS,low polyreactivity
10,QVQLVESGGGLVQAGGSLRLSCAASGRISDVYVMGWYRQAPGKERELVAAITWSGGDTYYADSVKGRFTISRDNAKNTVYLQMNSLNPEDTAVYYCNADTGKWGGNGWYEFDYWGQGTQVTVSS,low polyreactivity
11,QVQLVESGGGLVQAGGSLRLSCAASGRISFINAMGWYRQAPGKEREFVAGITTDGGSTYYADSVKGRFTISRDNAKNTVYLQMNSLKPEDTAVYYCAAEGSVWYVYWGDIYDYWGQGTQVTVSS,low polyreactivity
12,QVQLVESGGGLVQAGGSLRLSCAASGRISLSNAMGWYRQAPGKEREFVAAITKRSDRTYYADSVKGRFTISRDNAKNTVYLQMNSLKPEDRAVYYCAAKPLFGTRDDYWGQGTQVTVSS,low polyreactivity
13,QVQLVESGGGLVQAGGSLRLSCAASGRISLSNAMGWYRQAPGKEREFVAAITKRSDRTYYADSVKGRFTISRDNAKNTVYLQMNSLKPEDTAVYYCAAKPLFGTRDEYWGQGTQVTVSS,low polyreactivity
14,QVQLVESGGGLVQAGGSLRLSCAASGRISPNNAMGWYIPAPGKERELVAAITASGGTTYYADSVKGRFTISRDNAKYTVYLQMNSLKPEDSAVYYCAAAVWYRGWYRYDYWGQGTQVTVSS,low polyreactivity
15,QVQLVESGGGLVQAGGSLRLSCAASGRISQGYAMGWYRQAPGKERELVPGISRSGGSTYYADSVKGRFTISPDNAKNTVYLQMHSLKPEDTAVYYCAAQSWYGFPNYYWGQGSQVTVSS,high polyreactivity
16,QVQLVESGGGLVQAGGSLRLSCAASGRISQSNAMGWYRQAPGKERELVAAISWRGGSTYYADSVKGRFTISRDNAKNTVYLQMNSLKPEDTAVYYCAVRGKYDRHYYWGQGTQVTVSS,high polyreactivity
17,QVQLVESGGGLVQAGGSLRLSCAASGRISRLNAMGWYRQAPGKERELVATISGRGGGTYYADSVKGRFTISRDNAKNTVYLQMNSLKPEDTAVYYCNRRWFTRYDYWGQGTQVTVSS,high polyreactivity
18,QVQLVESGGGLVQAGGSLRLSCAASGRISRTNAMGWYRQAPGKERELVATITRGGNTNYADSVKGRFTISRDNAKNTVYLQMNSLKPEDTAVYYCAALGRYLRTYRGYVWQFDSWGQGTQVTVSS,high polyreactivity
19,QVQLVESGGGLVQAGGSLRLSCAASGRISSYYAMGWYRQAPGKEREFVAAITRSSGSTYYADSVKGRFTISRDNAKNTVYLQMNSLKPEDTAVYYCAADYYWTTFSRFDYWGQGTQVTVSS,low polyreactivity
20,QVQLVESGGGLVQAGGSLRLSCAASGRISVNYAMGWYRQAPGKERELVAGITSRGGSTYYADSVKGRFTISRDNAKNTVYLQMNSLKPEDTAVYYCAARWGGLWYYYWGQGTQVTVSS,high polyreactivity
21,QVQLVESGGGLVQAGGSLRLSCAASGRISVYYAMGWYRQGPGKERELVAAISWRGSTYYADSVKGRFTISRDYAKNTVYIQMNSQKPEDTAVYNSAARSTGYYGRFYYWGQGTQVTVSS,high polyreactivity
